The results in this text go back to article PMC12354254.

In the test the target is Brucella ovis PhyK (HWE-family histidine kinase, BOV_1602) (Brucella ovis). The experiment in a line: SEC. A general note: Size exclusion chromatography separates by hydrodynamic size, large species first.

“And” between values parts separate entries of the source, which are not always exact repeats. Equal values may be shown once.

The term stoichiometry N denotes a count of units in the complex or per binding partner.

For the substance “Brucella ovis PhyK (HWE-family histidine kinase, BOV_1602) (enzyme)”, the stoichiometry N is 6 and 2.
